Laboratory results published in the supplement of paper PMC10126150.
± gives the standard deviation of the averaged measurements.

Tested on: ATP
Experiment: switch fluorescence ratio, 500 uM ATP over buffer (Cy3 cluster intensity, sum of 5 cycles each) (fold (ratio)); higher = stronger signal-on switching upon ATP binding; sequences stand for … in TCGTCGGCAGCGTCAGATGTGTATAAGAGACAGTTTTTTTTTTTTTTTTTTTTTTTTT…TC
Conditions: aptamer strand: ATP DNA aptamer (quencher-CACCTGGGGGAGTATTGCGGAGGAAGG + anchor), 100 nM annealed; ATP concentration: 500 uM
Outline: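 Between each of five buffer/ATP cycles, the flow-cell was stripped with NaOH and re-annealed. Each cycle imaged Cy3-labelled switching-strand clusters, annealed to 100 nM quencher-labelled ATP aptamer on a modified Illumina MiSeq flow-cell, first in selection buffer and then after 15 min with 500 uM ATP at 22 °C. The fluorescence ratio is summed target-cycle over summed buffer-cycle Cy3 intensity per cluster, averaged per switch-domain sequence, with clusters outside 100-1000 RFU excluded.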
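Note: ATP exposure 15 min at 22 °C before imaging.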

Sequence | switch fluorescence ratio
GTAGGGTGCT | 1.042 ± 0.0064
GATCGGGGCA | 0.97679 ± 0.00094
GGCCGGCTAA | 0.997 ± 0.011
TGTGTTTTAG | 0.976 ± 0.015
TTGTTAGATT | 0.994 ± 0.031
TTAGGGAGTG | 1 ± 0.027
TGAGATTCCT | 1.09 ± 0.034
ATTAAAGGGA | 1 ± 0.037
GAAGGGAAAG | 1.02 ± 0.012
TTTTGATTTA | 1 ± 0.053
GATGCTACTG | 1.04 ± 0.016
AGACGAAAAG | 1.03 ± 0.038
GCCGGGTTAT | 1.03 ± 0.079
AGGGTACTGC | 1.02 ± 0.039
TTAAGGGATA | 1.03 ± 0.082
CCGGGATGGG | 1.03 ± 0.022
TGATTCGTTC | 1.04 ± 0.033
GGGATGGTTT | 0.988 ± 0.028
ATTATATTGC | 1.01 ± 0.026
TGGTGTTGGA | 0.9906 ± 0.0068
AGATTGGGGA | 1.01 ± 0.013
TGCTTTCGTC | 0.945 ± 0.031
AGTATAGGGG | 1.006 ± 0.007

Sequence | switch fluorescence ratio
CGGTTTTCTT | 0.995 ± 0.012
GTGCAAGGGT | 1.01 ± 0.029
GGTTCCCACT | 0.9919 ± 0.0045
CGGGGAGTCG | 0.945 ± 0.023
TGGGGATATT | 0.9965 ± 0.0016
ATTAGCAGGC | 1.11 ± 0.012
AATGTTTATC | 1.027 ± 0.0084
TGTTGTAGAA | 0.973 ± 0.013
TAATCCTTTG | 1.01 ± 0.048
TTTTTGGGGT | 0.999 ± 0.034
AAATGAGTAG | 1.02 ± 0.013
TTAGCTAAAA | 1.009 ± 0.01
TTTTGTAATG | 0.991 ± 0.035
GGGGTCGGGA | 0.999 ± 0.011
CGGTTAAGGC | 1.07 ± 0.017
CGGAGTTGCG | 0.98 ± 0.013
TTATTCATTT | 1.001 ± 0.01
AACTTGTTAG | 1.01 ± 0.016
CGGGTAACTT | 1.02 ± 0.046
TTATTGTACT | 1.008 ± 0.0073
GTTATTACGT | 1.03 ± 0.021
GTTGTGGGAA | 0.98266 ± 0.00039
TTGTTTAAGA | 1.03 ± 0.082

Sequence | switch fluorescence ratio
GGGATTAGAT | 0.982 ± 0.013
ACGGCGAGGT | 1.03 ± 0.032
CACATTATGA | 1.04 ± 0.014
AGCTACTTTT | 1.022 ± 0.0035
CAAAGGCAGG | 1.004 ± 0.0065
ATTTTGTTGT | 1.03 ± 0.048
GAGAGGGGTA | 0.974 ± 0.014
TATATTTTGC | 0.994 ± 0.026
TTTCAAGCAT | 1.02 ± 0.017
TTCTGAGTCT | 1.02 ± 0.041
GGAAGGTTCG | 1.01 ± 0.033
GGTTTTTAAT | 0.985 ± 0.031
TCGATGTTGT | 0.987 ± 0.03
CTTTTGGCCT | 1.03 ± 0.038
AGTAAAAGCG | 1.04 ± 0.017
TGTAAGCCTT | 1.03 ± 0.079
AAAATGTTTT | 1.02 ± 0.031
TGGGACCCGT | 1.04 ± 0.038
GGGTATGTAG | 0.986 ± 0.024
TTGTAGTTAC | 1.034 ± 0.0049
GCGATGTATA | 1.02 ± 0.013
AGGGGGGGC | 0.991 ± 0.015
GTTTGGGCGG | 0.978 ± 0.057

Sequence | switch fluorescence ratio
GGGAATTTAA | 1.02 ± 0.019
TTAACTCGAC | 1.07 ± 0.038
CGAGGCTCGT | 1.02 ± 0.065
TGGGTTACGA | 1.04 ± 0.035
GTGAGTGTCA | 1 ± 0.03
AAAAGCGTTG | 0.999 ± 0.013
GTGGTAGGGT | 1.02 ± 0.02
AGTTTTTGAT | 0.9692 ± 0.0068
AATTATTGGT | 1.01 ± 0.026
GGGTACGCCG | 0.934 ± 0.025
GTAACAGGGT | 0.999 ± 0.023
GGCCGCGGAC | 1.01 ± 0.035
CAATGTTGAG | 1 ± 0.032
AATGCTGCGC | 1.03 ± 0.056
CACGGAGAGT | 1.14 ± 0.18
CGTAGGAAAA | 0.98 ± 0.096
TAGGAGAGGG | 0.968 ± 0.034
TGTTTTGTTT | 0.995 ± 0.013
TTAAGGGCTC | 1 ± 0.013
GAAACGAATT | 1.02 ± 0.018
TGGTGAAGGG | 0.976 ± 0.016
GTTATTATTG | 1.02 ± 0.013
TCTTACGATC | 1 ± 0.021

Sequence | switch fluorescence ratio
TTTGCCGCGG | 0.995 ± 0.023
GGGGAAGAAG | 0.969 ± 0.02
TAGGCACCGA | 1.03 ± 0.053
GACGCACTGG | 1.853 ± 0.0015
GACGGCTATG | 1 ± 0.048
CTGGTCCAGG | 1.12 ± 0.034
TATGGTTACG | 0.9997 ± 0.0022
GAAGGGTATT | 1.01 ± 0.026
TTTAAATGTT | 0.991 ± 0.031
GTATGCTAGC | 1.004 ± 0.0086
TGAAGGGTTT | 0.996 ± 0.052
GCTGTACTCA | 1.43 ± 0.13
AAGGCACCTG | 1.03 ± 0.042
TTTCGGGGTG | 1.09 ± 0.17
TGAGTCATAC | 1.05 ± 0.033
GAAAGGGCTG | 1.05 ± 0.087
CACGCGTATG | 1.03 ± 0.011
CTAGGGCTGA | 0.972 ± 0.013
TGCTTTTACG | 1.04 ± 0.064
TCATTGTGAG | 1 ± 0.038
TAAGTGGGGA | 0.959 ± 0.032
TTAGGGTCAT | 0.979 ± 0.012
ACTGAACGGT | 1.14 ± 0.055

Sequence | switch fluorescence ratio
GTTTGTGC | 0.998 ± 0.059
GGGTGAGTAG | 1.02 ± 0.067
CGTTTGTTCT | 1.03 ± 0.061
CAATATTATG | 1.02 ± 0.02
TCTTTCTTTC | 1.01 ± 0.03
TTCTGGATTA | 0.994 ± 0.036
AATGGAGGGG | 0.978 ± 0.019
GTTTAGAGGA | 1 ± 0.025
AGGTTCAACG | 1.01 ± 0.028
GACGGTTCAG | 1.03 ± 0.023
TTTGGCGGCG | 0.993 ± 0.067
GGTATCTCGA | 1.03 ± 0.044
GGAAGAAAAA | 1.01 ± 0.067
GCTACACTGA | 1.04 ± 0.023
GAGGAACGTG | 0.967 ± 0.014
TCTTTCCTGC | 1.022 ± 0.0014
GAGGGGGTAG | 0.997 ± 0.033
TAGGATGGCC | 0.9522 ± 0.0012
TTTTCAGTGT | 0.996 ± 0.029
AAAGCTGTTT | 1.02 ± 0.014
TTAGGCACAA | 1.03 ± 0.038
TGGCATTCGT | 0.9757 ± 0.0091
AGATTGATGC | 1.03 ± 0.03

Sequence | switch fluorescence ratio
GCAGGCGTCA | 1.04 ± 0.015
AGGGGTATAG | 0.995 ± 0.068
TATACTTTAT | 1.02 ± 0.037
TCAACGAGTA | 1.029 ± 0.0061
TTGGTTGCAA | 0.983 ± 0.029
ATGTCAAAAG | 1 ± 0.022
CGGGCATTGT | 1.01 ± 0.051
TTTATTTTCG | 1.02 ± 0.037
ACGGGTAAAT | 1.01 ± 0.036
AGGGGGGTT | 1.01 ± 0.06
ATATTAAGTT | 1.01 ± 0.003
AAATTACATT | 1.02 ± 0.021
ATAAGAAGAT | 1.022 ± 0.0014
GGGCAACTGA | 1.01 ± 0.024
TTGGAAGGTT | 1.32 ± 0.42
TTTAAAGTTG | 1.05 ± 0.04
TCTTTTTGGG | 1.13 ± 0.16
TCGAAGGGCT | 1.016 ± 0.01
TGAGAGTTAA | 0.961 ± 0.036
